Here are results for four molecules from PMC11921806, “Structural characterization and inhibition of the interaction between ch-TOG and TACC3” (The Journal of Cell Biology, 2025).

In data set [1] the target is T1, TACC3 629–838 (human, UniProt Q9Y6A5 629-838).
T1 construct: human TACC3, TACC domain, residues 629-838; For MST the protein was fluorescently labelled via NHS coupling (NHS Red labelling kit, Nanotemper); Construct from Hood et al., 2013; also called TACC3 TACC domain; TACC3 TD; not shown: His, N-terminal, cleaved; NusA, N-terminal, cleaved
Nature of the data set: MST; NHS Red labelled TACC domain at 600 nM, H5 peptide 0–400 μM; 20 mM sodium phosphate, 50 mM NaCl, 2 mM DTT, 0.05% Tween, 0.02% NaN3; one-site specific binding model. The conditions noted are these: both partners purified.

Data set [2] deals with T1, TACC3 629–838. Put plainly: pull-down; in vitro co-precipitation; His-NusA-ch-TOG 1817–1957 constructs immobilised on Nickel Sepharose, TACC3 629–838 added; binding of TACC3 resolved by western blot. The conditions noted are these: both partners purified. For orientation: A western blot detects proteins with antibodies after separation by electrophoresis.
The target of a further data set is T2, ch-TOG 1517–1957 (human, UniProt Q14008 1517-1957).
T2 construct: Construct from Hood et al., 2013; also called C-terminal domain of ch-TOG; not shown: His, N-terminal, cleaved; NusA, N-terminal, cleaved
Nature of the data set: pull-down; in vitro co-precipitation; C-terminal His-tagged Affimers immobilised on Nickel Sepharose, incubated with TACC3 629–838 ∆699–765, ch-TOG 1517–1957 added. Conditions: both partners purified.

Data set [3] concerns the molecule itself. Put plainly: EPR (CW EPR and DEER); MTSL-labelled TACC3 proteins, 50 μM with 30% glycerol; CW EPR at 120 K, four-pulse DEER at 50 K.

B1: synthetic ch-TOG H5 peptide (residues 1929–1947) (peptide)
peptide: EVGPSVYLERLKILRQRCG
notes: human ch-TOG/CKAP5 helix H5, residues 1929-1947; source: synthetic peptide
Regarding B1, the Kd – broadly, a measure of binding affinity in units of concentration – with TACC3 629–838 [1] amounted to 17.3 µM.

B2: His-NusA-ch-TOG 1817–1957 (domain or fragment)
chain: ASRIDEKSSKAKVNDFLAEIFKKIGSKENTKEGLAELYEYKKKYSDADIEPFLKNSSQFFQSYVERGLRVIEMEREGKGRISTSTGISPQMEVTCVPTPTSTVSSIGNTNGEEVGPSVYLERLKILRQRCGLDNTKQDDRP
notes: not shown: His, N-terminal, kept; NusA, N-terminal, kept
For B2, the binding result in the data set with TACC3 629–838 [2] is “binds”.

B3: TACC3 629–838 ∆699–765 (domain or fragment)
chain: not shown
notes: human TACC3 residues 629-838 with residues 699-765 deleted; A version with a C-terminal biotinylated Avi-tag was used for Affimer panning and ELISA; also called TACC3 TD∆; not shown: His, N-terminal, cleaved; NusA, N-terminal, cleaved
Turning to B3, the binding result with ch-TOG 1517–1957 was “binds”.

B4: TACC3 MTSL-C662 (domain or fragment)
chain: not shown
modifications: MTSL spin label on C662
notes: human TACC3 residues 629-838 with C749A and C828A; also called TACC3 629–838 C749A, C828A; source: E. coli BL21(DE3)RIL, purified, MTSL-labelled, SEC; not shown: His, N-terminal, cleaved; NusA, N-terminal, cleaved
B4: the binding result in data set [3] is on record as “binds”.
